Assay results reported in PMC3605031, “Mitogen-Activated Protein Kinase p38b Interaction with Delta Class Glutathione Transferases from the Fruit Fly, Drosophila melanogaster” (Journal of Insect Science, 2012).
Where two headings read alike, the source gives them in different places.

Columns and labels:
[1] = target: Drosophila melanogaster p38b mitogen-activated protein kinase (D. melanogaster) (UniProt O61443)
[2] = target: Drosophila melanogaster p38b mitogen-activated protein kinase (D. melanogaster) (UniProt O61443); remark: listed apart in the source
[3] = target: Drosophila melanogaster p38b mitogen-activated protein kinase (D. melanogaster) (UniProt O61443); remark: listed apart in the source

Sequence of UniProt O61443 (O61443 whole entry): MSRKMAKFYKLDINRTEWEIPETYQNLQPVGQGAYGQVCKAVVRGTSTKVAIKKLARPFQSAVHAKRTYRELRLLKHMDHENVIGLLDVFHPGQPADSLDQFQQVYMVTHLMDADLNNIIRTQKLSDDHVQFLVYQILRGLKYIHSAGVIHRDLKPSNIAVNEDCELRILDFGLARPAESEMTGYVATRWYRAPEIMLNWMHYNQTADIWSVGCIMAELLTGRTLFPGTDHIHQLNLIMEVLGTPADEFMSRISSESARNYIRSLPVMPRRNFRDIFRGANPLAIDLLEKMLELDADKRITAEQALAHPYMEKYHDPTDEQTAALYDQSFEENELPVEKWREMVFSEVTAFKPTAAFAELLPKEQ

Question: For “Drosophila melanogaster Delta class glutathione transferase DmGSTD11b (enzyme)”, which fold change of p38b kinase activity toward ATF2 with GST at 1:1 molar ratio (ADP Quest assay) [1] is on record?
Answer: 7.1 fold

Question: And the fold change of p38b kinase activity toward jun with GST at 1:1 molar ratio (ADP Quest assay) [1]?
Answer: 10 fold

B1: Drosophila melanogaster Delta class glutathione transferase DmGSTD3 (enzyme)
chain: MVGKALGLEFNKKIINTLKGEQMNPDFIKINPQHSIPTLVDNGFTIWESRAILVYLVEKYGKDDALYPKDIQKQAVINQRLYFDMALMYPTLANYYYKAFTTGQFGSEEDYKKVQETFDFLNTFLEGQDYVAGDQYTVADIAILANVSNFDVVGFDISKYPNVARWYDHVKKITPGWEENWAGALDVKKRIEEKQNAAK
Question: For B1, which fold change of p38b kinase activity toward ATF2 with GST at 1:1 molar ratio (ADP Quest assay) [1] is on record?
Answer: 1.8 fold

Question: And the fold change of p38b kinase activity toward jun with GST at 1:1 molar ratio (ADP Quest assay) [1]?
Answer: 2.6 fold

B2: Drosophila melanogaster Delta class glutathione transferase DmGSTD7 (enzyme)
chain: MPNLDLYNFPMAPASRAIQMVAKALGLELNSKLINTMEGDQLKPEFVRINPQHTIPTLVDNGFVIWESRAIAVYLVEKYGKPDSPLYPNDPQKRALINQRLYFDMGTLYDALTKYFFLIFRTGKFGDQEALDKVNSAFGFLNTFLEGQDFVAGSQLTVADIVILATVSTVEWFSFDLSKFPNVERWLKNAPKVTPGWEQNLESLQQGKKFLQDLQAAKEKEVKA
Question: For B2, which increase of GST activity toward DCNB after incubation with p38b at 1:1 molar ratio [2] is on record?
Answer: 10 % increase

B3: Drosophila melanogaster Delta class glutathione transferase DmGSTD8 (enzyme)
chain: MDFYYHPCSAPCRSVIMTAKALGVDLNMKLLKVMDGEQLKPEFVKLNPQHCIPTLVDDGFSIWESRAILIYLVEKYGADDSLYPSDPQKKAVVNQRLYFDMGTLFQSFVEAIYPQIRNNHPADPEAMQKVDSAFGHLDTFLEDQEYVAGDCLTIADIALLASVSTFEVVDFDIAQYPNVARWYENAKEVTPGWEENWDGVQLIKKLVQERNE
Question: Which increase of GST activity toward DCNB after incubation with p38b at 1:1 molar ratio [2] does the source give for B3 here?
Answer: 30 % increase

Question: What about the fold change of p38b kinase activity toward ATF2 with GST at 1:1 molar ratio (ADP Quest assay) [1] of the same molecule?
Answer: 6.5 fold

Question: What about the fold change of p38b kinase activity toward jun with GST at 1:1 molar ratio (ADP Quest assay) [1] of the same molecule?
Answer: 8.1 fold

B4: Drosophila melanogaster Delta class glutathione transferase DmGSTD5 (enzyme)
chain: MDFYYSPRGSGCRTVIMVAKALGVKLNMKLLNTLEKDQLKPEFVKLNPQHTIPTLVDNGFSIWESRAIAVYLVEKYGKDDTLFPKDPKKQALVNQRLYFDMGTLYDSFAKYYYPLFHTGKPGSDEDFKKIESSFEYLNIFLEGQNYVAGDHLTVADIAILSTVSTFEIFDFDLNKYPNVARWYANAKKVTPGWEENWKGAVELKGVFDARQAAAKQ
Question: B4 was tested. Which decrease of GST activity toward CDNB after incubation with p38b at 1:1 molar ratio [2] did it give?
Answer: 10 % decrease

Question: And the decrease of GST activity toward DCNB after incubation with p38b at 1:1 molar ratio [2]?
Answer: 40 % decrease

Question: What about the decrease of GST activity toward CDNB after incubation with p38b at 1:1 molar ratio, as told in the discussion [3] of the same molecule?
Answer: 8 % decrease

Question: And the decrease of GST activity toward DCNB after incubation with p38b at 1:1 molar ratio, as told in the discussion [3]?
Answer: 36 % decrease

Question: What about the fold change of p38b kinase activity toward jun with GST at 1:1 molar ratio (ADP Quest assay), as told in the discussion [3] of the same molecule?
Answer: 1.5 fold

Question: And the fold change of p38b kinase activity toward ATF2 with GST at 1:1 molar ratio (ADP Quest assay) [1]?
Answer: 1.4 fold

Question: And the fold change of p38b kinase activity toward jun with GST at 1:1 molar ratio (ADP Quest assay) [1]?
Answer: 1.6 fold

B5: Drosophila melanogaster Delta class glutathione transferase DmGSTD2 (enzyme)
chain: MDFYYMPGGGGCRTVIMVAKALGLELNKKLLNTMEGEQLKPEFVKLNPQHTIPTLVDNGFSIWESRAIAVYLVEKYGKDDYLLPNDPKKRAVINQRLYFDMGTLYESFAKYYYPLFRTGKPGSDEDLKRIETAFGFLDTFLEGQEYVAGDQLTVADIAILSTVSTFEVSEFDFSKYSNVSRWYDNAKKVTPGWDENWEGLMAMKALFDARKLAAK
Question: With B5 as the molecule, how does the increase of GST activity toward DCNB after incubation with p38b at 1:1 molar ratio [2] read?
Answer: 37 % increase

Question: What about the decrease of GST activity toward CDNB after incubation with p38b at 1:1 molar ratio [3] of the same molecule?
Answer: 5 % decrease
